Results as given in ChEMBL document CHEMBL4321793, “Can Cysteine Protease Cross-Class Inhibitors Achieve Selectivity?” (J Med Chem, 2019).

Assays:
[1] = test system: N=C(N)NCCC[C@H](NC(=O)OCc1ccccc1)C(=O)N[C@@H](CCCNC(=N)N)C(=O)Nc1ccc2ccc(=O)oc2c1; test: (§1) Inhibition of human cathepsin B assessed as ratio of Kcat/Km using Z-Phe-Arg-MCA as substrate by spectrofluorometric method
[2] = test system: N=C(N)NCCC[C@H](NC(=O)[C@H](Cc1ccc(NC(=N)N)cc1)NC(=O)OCc1ccccc1)C(=O)Nc1ccc2ccc(=O)oc2c1; test: as §1
[3] = test system: N=C(N)NCCC[C@H](NC(=O)[C@H](Cc1ccccc1)NC(=O)OCc1ccccc1)C(=O)Nc1ccc2ccc(=O)oc2c1; test: as §1
[4] = test system: N=C(N)NCCC[C@H](NC(=O)[C@H](Cc1ccncc1)NC(=O)OCc1ccccc1)C(=O)Nc1ccc2ccc(=O)oc2c1; test: as §1

Cathepsin B (Homo sapiens) gave a kcat/Km [1] of 554000 M⁻¹ s⁻¹, a kcat/Km [2] of 1.57e+06 M⁻¹ s⁻¹ and a kcat/Km [3] of 2.32e+06 M⁻¹ s⁻¹. The kcat/Km [4] was 742000 M⁻¹ s⁻¹.
